How the values were obtained:
[1] = tested on: N-end rule pathway ubiquitylation in reticulocyte lysates; assay: ECL ubiquitylation assay of EST clone proteins, FK2 antibody coated IPR plate; assay type: biochemical, rabbit
Experimental: The following EST clones in bacteria were obtained: IMAGE ID #, 3446518, 3446518, 3446518, 3914731 (RGS4), 3914731 (RGS4), 3914731 (RGS4) (Incyte, Palo Alto). Bacteria containing EST clones were grown in 2 ml LB with 50 μg/ml Amp, and DNA was isolated using QIAprep Spin Miniprep Kit (Qiagen). DNA yield was 5–20 μg.
Proteins were prepared from the EST clones in transcription-translation reaction mixtures (total volume 12.5 uL) as described in the Materials and Methods except for the addition of 1 μM Ub aldehyde (Calbiochem). Then 1 μl of the reaction product was mixed with 50 μl of BB1 supplemented with 20 mM AMP-PNP, 20 mM N-ethylmaleimide and 2 μg/ml Sulfo-TAG-labeled streptavidin in to each well of an IPR plate coated with FK2 antibody.
As previously reported, RGS4 is a substrate of the N-end rule-dependent ubiquitylation in reticulocyte lysates (Davydov and Varshavsky, 2000, J. Biol. Chem., 275:22931–22941). To determine if the protein produced from clone 3446518 was similarly ubiquitylated through the N-end rule pathway, the ECL ubiquitylation assay was performed in the presence of dipeptide inhibitors Arg-β-Ala (type 1 inhibitor of the N-end rule pathway), or Trp-Ala (type 2 inhibitor of the same pathway). As was shown on FIG. 2, the RGS4 signal was reduced 3–4 fold in the presence of Arg-β-Ala (a type 1 inhibitor of the N-end rule pathway), but not in the presence of Trp-Ala (a type 2 inhibitor of the N-end rule pathway) in agreement with the previous report that RGS4 is a type 1 N-end rule substrate in reticulocyte lysates (Davydov and Varshavsky, 2000, J. Biol. Chem., 275:22931–22941). In contrast, the dipeptides had little effect on the assay signal from clone 3446518 (FIG. 2). Thus, a different pathway of the ubiquitin system mediates ubiquitylation of the protein produced from clone 3446518.

[2] = tested on: ubiquitylation in reticulocyte lysates; assay: 96-well screen of EST clones: ubiquitylation assay, FK2 antibody coated plate; assay type: biochemical, rabbit
Experimental: Transcription-translation reactions were assembled in a 96-well plate as described in Materials and Method in a total volume of 19 μl. The amounts of DNA in each reaction varied depending on DNA yields at purification stage, while the four positive control wells contained reactions with 20 μg/ml plasmid DNA. The reactions were incubated at 30° C. for 40 min.
After incubation, 1 μl of the TNT reaction was mixed with 50 μl of BB1 in an IPR plate coated with FK2 antibody (750 ng antibody per well) (see Materials and Methods).

Molecule	signal in ubiquitylation assay (in words) [1]	signal in ubiquylation screen (FIG. 2, in words) [2]	ECL readings, Experiment 1 ([1]; no dipeptide inhibitor)	ECL readings, Experiment 2 ([1]; no dipeptide inhibitor)	ECL readings, Experiment 3 ([1]; no dipeptide inhibitor)
3912628: IMAGE clone protein: RGS4 (protein, UniProt P49798 1-205, looked up) Regulator of G-protein …: MCKGLAGLPASCLRSAKDMKHRLGFLLQKSDSCEHNSSHNKKDKVVICQRVSQEEVKKWAESLENLISHECGLAAFKAFLKSEYSEENIDFWISCEEYKKIKSPSKLSPKAKKIYNEFISVQATKEVNLDSCTREETSRNMLEPTITCFDEAQKKIFNLMEKDSYRRFLKSRFYLDLVNPSSCGAEKQKGAKSSADCASLVPQCA	strong specific signal	strong specific signal			
3920860: IMAGE clone protein: RGS4 (protein, UniProt P49798 1-205, looked up) Regulator of G-protein …: MCKGLAGLPASCLRSAKDMKHRLGFLLQKSDSCEHNSSHNKKDKVVICQRVSQEEVKKWAESLENLISHECGLAAFKAFLKSEYSEENIDFWISCEEYKKIKSPSKLSPKAKKIYNEFISVQATKEVNLDSCTREETSRNMLEPTITCFDEAQKKIFNLMEKDSYRRFLKSRFYLDLVNPSSCGAEKQKGAKSSADCASLVPQCA	strong specific signal	strong specific signal			
3914731: IMAGE clone protein: RGS4 (protein, UniProt P49798 1-205, looked up) Regulator of G-protein …: MCKGLAGLPASCLRSAKDMKHRLGFLLQKSDSCEHNSSHNKKDKVVICQRVSQEEVKKWAESLENLISHECGLAAFKAFLKSEYSEENIDFWISCEEYKKIKSPSKLSPKAKKIYNEFISVQATKEVNLDSCTREETSRNMLEPTITCFDEAQKKIFNLMEKDSYRRFLKSRFYLDLVNPSSCGAEKQKGAKSSADCASLVPQCA	strong specific signal	strong specific signal	41670	43729	41806
